{"source": "the array DNA melting data of Ke et al.", "data": [{"test": "melting temperature; melt of duplexes", "settings": "sodium 0.0675 M; strand 1 µM", "units": {"Tm": "°C"}, "values": [{"substance": "CGACGTGCACTATGTGCTG+CAGCACATTAAGCACGTCG ((((((((...((((((((+))))))))...))))))))", "Tm": 44.3}, {"substance": "CGACGTGCCGGATGTGCTG+CAGCACATCTCGCACGTCG ((((((((..(((((((((+)))))))))..))))))))", "Tm": 54.1}, {"substance": "CGACGTGCGTAATGTGCTG+CAGCACATTCCGCACGTCG (((((((((.(((((((((+))))))))).)))))))))", "Tm": 57.7}, {"substance": "CGACGTGCTGGATGTGCTG+CAGCACATCTCGCACGTCG ((((((((..(((((((((+)))))))))..))))))))", "Tm": 55.3}, {"substance": "CGACGTGCGGTATGTGCTG+CAGCACATAAAGCACGTCG ((((((((..(((((((((+)))))))))..))))))))", "Tm": 56.9}, {"substance": "CGACGTGCAAAATGTGCTG+CAGCACATATTGCACGTCG ((((((((((.((((((((+)))))))).))))))))))", "Tm": 54.7}, {"substance": "CGACGTGCAGGATGTGCTG+CAGCACATGGCGCACGTCG ((((((((...((((((((+))))))))...))))))))", "Tm": 49.9}, {"substance": "CGACGTGCATGATGTGCTG+CAGCACATCGAGCACGTCG ((((((((..(((((((((+)))))))))..))))))))", "Tm": 56.1}, {"substance": "CGACGTGCAGCATGTGCTG+CAGCACATACAGCACGTCG ((((((((.(.((((((((+)))))))).).))))))))", "Tm": 48.3}, {"substance": "CGACGTGCTTCATGTGCTG+CAGCACATATTGCACGTCG ((((((((...((((((((+))))))))...))))))))", "Tm": 49.1}, {"substance": "CGACGTGCCTCATGTGCTG+CAGCACATACAGCACGTCG ((((((((...((((((((+))))))))...))))))))", "Tm": 48.3}, {"substance": "CGACGTGCCAAATGTGCTG+CAGCACATCGCGCACGTCG ((((((((...((((((((+))))))))...))))))))", "Tm": 48.2}, {"substance": "CGACGTGCACCATGTGCTG+CAGCACATCGGGCACGTCG ((((((((.(.((((((((+)))))))).).))))))))", "Tm": 49.4}, {"substance": "CGACGTGCTCGATGTGCTG+CAGCACATAACGCACGTCG ((((((((...((((((((+))))))))...))))))))", "Tm": 49}, {"substance": "CGACGTGCCATATGTGCTG+CAGCACATGTGGCACGTCG ((((((((((.((((((((+)))))))).))))))))))", "Tm": 60.3}, {"substance": "CGACGTGCTTAATGTGCTG+CAGCACATATAGCACGTCG (((((((((..((((((((+))))))))..)))))))))", "Tm": 54.2}, {"substance": "CGACGTGCTGCATGTGCTG+CAGCACATGCAGCACGTCG (((((((((((((((((((+)))))))))))))))))))", "Tm": 67.5}, {"substance": "CGACGTGCCTTATGTGCTG+CAGCACATCATGCACGTCG ((((((((.(.((((((((+)))))))).).))))))))", "Tm": 47.7}, {"substance": "CGACGTGCAAGATGTGCTG+CAGCACATCGCGCACGTCG ((((((((..(((((((((+)))))))))..))))))))", "Tm": 58.4}, {"substance": "CGACGTGCTGCATGTGCTG+CAGCACATCGCGCACGTCG ((((((((...((((((((+))))))))...))))))))", "Tm": 52.6}, {"substance": "CGACGTGCCCAATGTGCTG+CAGCACATGCTGCACGTCG ((((((((...((((((((+))))))))...))))))))", "Tm": 47.8}, {"substance": "CGACGTGCCCCATGTGCTG+CAGCACATTAGGCACGTCG (((((((((..((((((((+))))))))..)))))))))", "Tm": 52.5}, {"substance": "CGACGTGCTGTATGTGCTG+CAGCACATGACGCACGTCG ((((((((...((((((((+))))))))...))))))))", "Tm": 47.9}, {"substance": "CGACGTGCGCCATGTGCTG+CAGCACATAGCGCACGTCG ((((((((((.((((((((+)))))))).))))))))))", "Tm": 58.9}, {"substance": "CGACGTGCCAGATGTGCTG+CAGCACATAATGCACGTCG ((((((((...((((((((+))))))))...))))))))", "Tm": 48.5}, {"substance": "CGACGTGCTAAATGTGCTG+CAGCACATTGTGCACGTCG ((((((((..(((((((((+)))))))))..))))))))", "Tm": 50.7}, {"substance": "CGACGTGCCGAATGTGCTG+CAGCACATCGTGCACGTCG ((((((((...((((((((+))))))))...))))))))", "Tm": 51.9}, {"substance": "CGACGTGCGCAATGTGCTG+CAGCACATCTAGCACGTCG ((((((((...((((((((+))))))))...))))))))", "Tm": 51.8}, {"substance": "CGACGTGCACAATGTGCTG+CAGCACATGTAGCACGTCG ((((((((...((((((((+))))))))...))))))))", "Tm": 50.7}, {"substance": "CGACGTGCAAAATGTGCTG+CAGCACATAGTGCACGTCG (((((((((..((((((((+))))))))..)))))))))", "Tm": 47}, {"substance": "CGACGTGCTATATGTGCTG+CAGCACATCCTGCACGTCG ((((((((...((((((((+))))))))...))))))))", "Tm": 48.3}, {"substance": "CGACGTGCCGGATGTGCTG+CAGCACATCAAGCACGTCG ((((((((..(((((((((+)))))))))..))))))))", "Tm": 54.8}, {"substance": "CGACGTGCCTGATGTGCTG+CAGCACATGACGCACGTCG ((((((((.(.((((((((+)))))))).).))))))))", "Tm": 44.5}, {"substance": "CGACGTGCTCCATGTGCTG+CAGCACATGACGCACGTCG ((((((((..(((((((((+)))))))))..))))))))", "Tm": 49.8}, {"substance": "CGACGTGCTTCATGTGCTG+CAGCACATCTTGCACGTCG ((((((((...((((((((+))))))))...))))))))", "Tm": 48.3}, {"substance": "CGACGTGCTTCATGTGCTG+CAGCACATGCAGCACGTCG (((((((((.(((((((((+))))))))).)))))))))", "Tm": 56.9}, {"substance": "CGACGTGCCGAATGTGCTG+CAGCACATGAGGCACGTCG (((((((((..((((((((+))))))))..)))))))))", "Tm": 63.8}, {"substance": "CGACGTGCGGCATGTGCTG+CAGCACATAAAGCACGTCG ((((((((...((((((((+))))))))...))))))))", "Tm": 56}, {"substance": "CGACGTGCCATATGTGCTG+CAGCACATCAGGCACGTCG (((((((((..((((((((+))))))))..)))))))))", "Tm": 53.5}, {"substance": "CGACGTGCAGCATGTGCTG+CAGCACATCATGCACGTCG (((((((((..((((((((+))))))))..)))))))))", "Tm": 49.5}, {"substance": "CGACGTGCCGCATGTGCTG+CAGCACATCGTGCACGTCG ((((((((...((((((((+))))))))...))))))))", "Tm": 50.5}, {"substance": "CGACGTGCGACATGTGCTG+CAGCACATCCAGCACGTCG ((((((((...((((((((+))))))))...))))))))", "Tm": 50.4}, {"substance": "CGACGTGCGGAATGTGCTG+CAGCACATCAAGCACGTCG ((((((((...((((((((+))))))))...))))))))", "Tm": 53.8}, {"substance": "CGACGTGCACCATGTGCTG+CAGCACATGTTGCACGTCG (((((((((.(((((((((+))))))))).)))))))))", "Tm": 55}, {"substance": "CGACGTGCGATATGTGCTG+CAGCACATCGTGCACGTCG ((((((((...((((((((+))))))))...))))))))", "Tm": 44.3}, {"substance": "CGACGTGCATTATGTGCTG+CAGCACATATTGCACGTCG (((((((((.(((((((((+))))))))).)))))))))", "Tm": 54.5}, {"substance": "CGACGTGCCCTATGTGCTG+CAGCACATCTAGCACGTCG ((((((((...((((((((+))))))))...))))))))", "Tm": 48}, {"substance": "CGACGTGCTGTATGTGCTG+CAGCACATCTCGCACGTCG ((((((((...((((((((+))))))))...))))))))", "Tm": 48.9}, {"substance": "CGACGTGCTCCATGTGCTG+CAGCACATTATGCACGTCG ((((((((...((((((((+))))))))...))))))))", "Tm": 47.6}, {"substance": "CGACGTGCGTCATGTGCTG+CAGCACATAACGCACGTCG ((((((((((.((((((((+)))))))).))))))))))", "Tm": 58}, {"substance": "CGACGTGCATCATGTGCTG+CAGCACATGAGGCACGTCG ((((((((.((((((((((+)))))))))).))))))))", "Tm": 60.8}, {"substance": "CGACGTGCTGCATGTGCTG+CAGCACATTAGGCACGTCG ((((((((...((((((((+))))))))...))))))))", "Tm": 50.4}, {"substance": "CGACGTGCTAGATGTGCTG+CAGCACATGCTGCACGTCG ((((((((...((((((((+))))))))...))))))))", "Tm": 49.3}, {"substance": "CGACGTGCTGTATGTGCTG+CAGCACATTCTGCACGTCG ((((((((.(.((((((((+)))))))).).))))))))", "Tm": 52}, {"substance": "CGACGTGCTCTATGTGCTG+CAGCACATAAAGCACGTCG (((((((((.(((((((((+))))))))).)))))))))", "Tm": 54}, {"substance": "CGACGTGCAGTATGTGCTG+CAGCACATACGGCACGTCG ((((((((.((((((((((+)))))))))).))))))))", "Tm": 58.3}, {"substance": "CGACGTGCCCCATGTGCTG+CAGCACATCACGCACGTCG ((((((((...((((((((+))))))))...))))))))", "Tm": 45.7}, {"substance": "CGACGTGCCCAATGTGCTG+CAGCACATAGCGCACGTCG ((((((((.(.((((((((+)))))))).).))))))))", "Tm": 48.9}, {"substance": "CGACGTGCTTCATGTGCTG+CAGCACATTGCGCACGTCG ((((((((...((((((((+))))))))...))))))))", "Tm": 46.5}, {"substance": "CGACGTGCGCAATGTGCTG+CAGCACATGGTGCACGTCG ((((((((.(.((((((((+)))))))).).))))))))", "Tm": 54.3}, {"substance": "CGACGTGCAAGATGTGCTG+CAGCACATTCTGCACGTCG (((((((((..((((((((+))))))))..)))))))))", "Tm": 53.2}, {"substance": "CGACGTGCTAGATGTGCTG+CAGCACATATTGCACGTCG ((((((((.(.((((((((+)))))))).).))))))))", "Tm": 52.5}, {"substance": "CGACGTGCAAAATGTGCTG+CAGCACATACTGCACGTCG (((((((((..((((((((+))))))))..)))))))))", "Tm": 50.4}, {"substance": "CGACGTGCGCAATGTGCTG+CAGCACATCCCGCACGTCG (((((((((..((((((((+))))))))..)))))))))", "Tm": 52.5}, {"substance": "CGACGTGCTACATGTGCTG+CAGCACATACCGCACGTCG ((((((((...((((((((+))))))))...))))))))", "Tm": 47.5}, {"substance": "CGACGTGCTGTATGTGCTG+CAGCACATATAGCACGTCG (((((((((.(((((((((+))))))))).)))))))))", "Tm": 57}, {"substance": "CGACGTGCGTTATGTGCTG+CAGCACATGTAGCACGTCG ((((((((...((((((((+))))))))...))))))))", "Tm": 53.6}, {"substance": "CGACGTGCCCAATGTGCTG+CAGCACATTGTGCACGTCG ((((((((.((((((((((+)))))))))).))))))))", "Tm": 54.7}, {"substance": "CGACGTGCTTAATGTGCTG+CAGCACATAGAGCACGTCG (((((((((..((((((((+))))))))..)))))))))", "Tm": 53.1}, {"substance": "CGACGTGCCAAATGTGCTG+CAGCACATAAAGCACGTCG ((((((((...((((((((+))))))))...))))))))", "Tm": 49.9}, {"substance": "CGACGTGCGCTATGTGCTG+CAGCACATCGGGCACGTCG ((((((((.(.((((((((+)))))))).).))))))))", "Tm": 52}, {"substance": "CGACGTGCGGGATGTGCTG+CAGCACATAGTGCACGTCG ((((((((...((((((((+))))))))...))))))))", "Tm": 47.9}]}]}
